Here are results for 4 molecules from patent publication US20220073641A1, “FUSION PROTEIN OF ANTIBODY THAT RECOGNIZES CANCER CELLS AND MUTANT STREPTAVIDIN” (The University of Tokyo, priority 2018, published 2022).

For data set [1], the system named is MKN45 cells. The data set is described as follows: In vivo cytotoxicity test in MKN45 xenograft mouse models with 690 nm light. More on the design: species or system nude mice. The note with it: 100 μg complex of CEA-V2122 and Compound 1 via caudal vein; 690 nm 230 J/cm^2 at 6 and 24 hours; pathology on 7th day; FIG. 11, 12. The text has this: MKN45 cells were subcutaneously transplanted into nude mice to produce xenograft mouse models. That is, 4-week-old female nude mice were purchased, and the mice were then acclimated for 1 week. Thereafter, the MKN45 cells were transplanted in a cell count of 2×10^5 cells per mouse into the subcutis thereof. […] Using an LED light source emitting a light having a wavelength of 690 nm (USHIO OPTO SEMICONDUCTORS, INC., LD690D-66-60-550.), T-Cube LED Driver (THORLABS, NC0713145), and T-CUBE 15V POWER SUPPLY (THORLABS, TPS001), 6 hours after the administration, the mice were irradiated with the light having a wavelength of 690 nm, so that the irradiation energy became 230 J/cm^2. Twenty-four hours after administration of the complex, the mice were irradiated again with the light having a wavelength of 690 nm, so that the irradiation energy became 230 J/cm^2. Individual mice were euthanized on the 7th day after administration of the complex and were then excised, and the tumor portions were subjected to pathological analysis. The specific method is as follows. That is, the subcutaneous tumor of each mouse and the peripheral tissues thereof were excised as a mass, and the mass was then immersed in a 4% paraformaldehyde solution (Wako Pure Chemical Industries, Ltd., 163-20145) at mom temperature overnight, so that the tissues were fixed. […]

Data set [2] has as its system MKN45 cells. The data set is described as follows: Cytotoxicity test using CEA-V2122 and photoactivatable compound-labeled modified biotins with 690 nm light. The note with it: complex with CEA-V2122 (molar ratio 1:2), 0.039-10 μg/mL, 690±10 nm 100 J/cm^2, 48 hours, Cell Counting Kit-8; FIG. 8.
Description: Specifically, MKN45 cells were seeded on a 96-well plate for cell culture, so that the cell count became 5×10^3 cells/well and the amount of the culture solution became 50 μL/well, and thereafter, the cells were cultured overnight. […] Regarding serial dilutions, 20 μg/mL was set to be an initial concentration, from 4-fold serial dilutions (5.0 μg/mL, 1.25 μg/mL, 0.312 μg/mL, and 0.078 μg/mL), 5 complex serial dilution solutions were prepared. Besides, a medium alone that contained no complex was used as a zero control.
Such complex serial dilution solutions were each added in an amount of 50 μL/well to the cells cultured overnight, so that the final concentrations became 10 μg/mL, 2.5 μg/mL, 0.625 μg/mL, 0.156 μg/mL, and 0.039 μg/mL One hour and two hours after addition of the complex, the cells were irradiated with a light, using LED emitting a light having a wavelength of 690±10 nm, so that the irradiation energy became 100 J/cm^2. […] Each condition was set to be n=3. The dosage and administration were determined in accordance with the instruction manuals included with the kit, and after addition of the reagent, the mixture was incubated for 1.5 hours at 37° C., in a CO2 incubator. Thereafter, the absorbance at 450 nm was measured, and the mean value was then calculated, followed by background collection. […]
Data set [3] deals with T1, Recombinant Human CEACAM-5/CD66e Protein, CF (R & D SYSTEMS) (human, UniProt P06731 35-685).
T1 construct: Purchased protein, amine-coupled to a CM5 chip; also called antigen CEACAM5
T1 sequence (looked up): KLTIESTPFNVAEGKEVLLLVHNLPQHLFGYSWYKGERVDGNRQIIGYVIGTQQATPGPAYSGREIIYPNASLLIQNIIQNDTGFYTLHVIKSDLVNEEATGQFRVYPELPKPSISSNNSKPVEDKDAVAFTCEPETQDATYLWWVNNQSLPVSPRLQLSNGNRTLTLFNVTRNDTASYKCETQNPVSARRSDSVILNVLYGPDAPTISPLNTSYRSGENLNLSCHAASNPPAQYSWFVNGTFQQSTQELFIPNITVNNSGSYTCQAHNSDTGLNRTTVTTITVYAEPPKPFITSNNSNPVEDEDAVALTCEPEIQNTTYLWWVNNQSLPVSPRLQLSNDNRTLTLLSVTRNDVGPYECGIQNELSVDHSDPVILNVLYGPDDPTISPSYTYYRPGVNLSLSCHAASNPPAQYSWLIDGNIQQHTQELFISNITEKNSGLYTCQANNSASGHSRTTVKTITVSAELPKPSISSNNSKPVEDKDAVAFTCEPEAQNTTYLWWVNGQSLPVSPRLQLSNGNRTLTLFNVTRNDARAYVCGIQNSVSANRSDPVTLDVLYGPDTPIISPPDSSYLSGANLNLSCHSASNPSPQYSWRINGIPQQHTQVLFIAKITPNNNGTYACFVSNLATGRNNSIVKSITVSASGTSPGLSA
The data set is described as follows: SPR (Biacore T200), CEACAM5 immobilized on CM5, CEA-V2122 as analyte, single-cycle kinetics, bivalent analysis fit.

Data set [4] deals with T2, CEACAM5 (Homo sapiens, UniProt P06731).
T2 sequence (P06731 35-676): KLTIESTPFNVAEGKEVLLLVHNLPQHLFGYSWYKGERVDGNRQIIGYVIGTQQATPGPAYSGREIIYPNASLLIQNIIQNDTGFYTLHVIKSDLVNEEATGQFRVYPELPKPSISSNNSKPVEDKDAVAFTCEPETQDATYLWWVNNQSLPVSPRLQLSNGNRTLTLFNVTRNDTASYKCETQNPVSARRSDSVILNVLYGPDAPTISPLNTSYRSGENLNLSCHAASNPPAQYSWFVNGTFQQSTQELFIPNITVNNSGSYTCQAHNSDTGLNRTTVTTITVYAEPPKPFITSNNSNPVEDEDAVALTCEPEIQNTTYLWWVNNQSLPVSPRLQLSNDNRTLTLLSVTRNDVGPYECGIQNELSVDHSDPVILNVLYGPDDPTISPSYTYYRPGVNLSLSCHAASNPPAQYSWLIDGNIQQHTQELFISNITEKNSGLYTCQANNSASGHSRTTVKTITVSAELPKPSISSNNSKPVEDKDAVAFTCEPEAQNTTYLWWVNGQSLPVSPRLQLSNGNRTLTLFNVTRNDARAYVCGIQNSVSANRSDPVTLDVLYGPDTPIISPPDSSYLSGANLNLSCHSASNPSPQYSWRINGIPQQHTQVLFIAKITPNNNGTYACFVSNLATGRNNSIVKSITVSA
Description: Cell staining of CEACAM5-expressing cell line using FITC-labeled CEA-V2122. The class given is cell-based. Here is the method: In order to stain a CEACAM5 expression-positive cancer cell line, FTC labeling was carried out on the cell line, using 100 μg of a purified CEA-V2122 protein. Specifically, labeling was carried out using Fluorescein Labeling Kit—NH2 (DOJINDO LABORATORIES) in accordance with the dosage and administration described in the operating manual included with the kit, and the obtained product was defined to be CEA-V2122-FITC. Specific staining of the CEACAM5 expression-positive cancer cell line is as follows. That is, CEACAM5-positive human stomach cancer-derived MKN-45 cells and CEACAM5-negative human colon cancer-derived DLD1 cells were each seeded on a CELLSTAR, μClear, 96-well plate (Greiner) to a cell density of 2.0×10^4 cells/well, and thereafter, the cells were cultured overnight. Subsequently, a culture solution containing 20 nM CEA-V2122-FITC and 1 μM Hoechist was added to the 96-well plate to a concentration of 100 μL/well, and the obtained mixture was then reacted at 4° C. for 30 minutes. Thereafter, each image was taken using In Cell Analyzer 6000 (GE Healthcare Life Sciences).

In data set [5] the target is T2, CEACAM5. Description: SPR (Biacore T200) affinity of CEA-V2122 for immobilized antigen CEACAM5. It counts as binding. Details: purchased R & D SYSTEMS.
Data set [6] can be described thus: SPR (Biacore T200) interaction between immobilized CEA-V2122 and a modified biotin. It counts as binding. Here is the method: Furthermore, the interaction between CEA-V2122 and a modified biotin was also analyzed using Biacore T200. The modified biotin was specifically the title compound 14 described in Example 1 of International Publication WO2018/07239. In addition, the analysis method was specifically as follows. That is, an amine-coupling kit was used, a target value was set to be 5000 RU, and the purified CEA-V2122 was immobilized on Sensor Chip CM5.

Where [7] appears, read: single-cycle kinetics, bivalent analysis mode, CEACAM5 immobilized, CEA-V2122 analyte.
Where [8] appears, read: single-cycle kinetics, bivalent analysis mode, CEA-V2122 immobilized, modified biotin analyte.

For the molecule `C[Si](C)(CCC[N+](CCCS(=O)(=O)[O-])(CCCS(=O)(=O)O)CCCS(=O)(=O)O)O[Si]1(O[Si](C)(C)CCC[N+](CCCS(=O)(=O)[O-])(CCCS(=O)(=O)O)CCCS(=O)(=O)O)N2/C3=N\C4=NC(=N\c5c6c(OCCCOC(=O)NCCCCCC(=O)NCCOCCOCCN(CC(=O)NCCCCNC(=O)CCCC[C@@H]7SC[C@@H]8NC(=N)N[C@@H]87)CC(=O)NCCCCNC(=O)CCCC[C@@H]7SC[C@@H]8NC(=N)N[C@@H]87)cccc6c(n51)/N=C1\N=C(NC2c2ccccc23)c2ccccc21)/c1ccccc14` (stereo partly drawn) [Compound 1], the tumor necrosis result in the data set with MKN45 cells [1] is “necrosis can be induced to the tumor of the xenograft mouse model”. Moreover, the cytotoxicity entry in the data set on MKN45 cells [2] is reported as “exhibits cytotoxicity in a concentration-dependent manner”.

B1: CEA-V2122 (scFv)
chain: QVKLEQSGAEVVKPGASVKLSCKASGFNIKDSYMHWLRQGPGQRLEWIGWIDPENGDTEYAPKFQGKATFTTDTSANTAYLGLSSLRPEDTAVYYCNEGTPTGPYYFDYWGQGTLVTVSSGGGGSGGGGSGGGGSENVLTQSPSSMSVSVGDRVNIACSASSSVPYMHWLQQKPGKSPKLLIYLTSNLASGVPSRFSGSGSGTDYSLTISSVQPEDAATYYCQQRSSYPLTFGGGTKLEIKGGGGSGGGGAEAGITGTWSDQLGDTFIVTAGADGALTGTYENAVGGAESRYVLTGRYDSAPATDGSGTALGWTVAWKNNSKNAHSATTWSGQYVGGADAKINTQWLLTSGTTNANAWKSTLVGHDTFTKVKPSAASHHHHHH
notes: also called CEA-Cupid; scFv-V2122
On to B1, for which the Kd in data set [3] was determined as 1.08 pM.

B2: CEA-V2122-FITC: purified CEA-V2122 protein labeled with Fluorescein Labeling Kit—NH2 (protein)
chain: B1 chain
As to B2, the “recognition of CEACAM5 on cells” value with CEACAM5 [4] (20 nM, 4° C., 30 minutes, CEACAM5-positive MKN-45 vs CEACAM5-negative DLD1 cells, FIG. 5) is “specifically recognizes CEACAM5 on the surface of the cell membrane”. Besides, the “localisation of CEACAM5 after binding” value with CEACAM5 [4] (MKN45 cells, time series, FIG. 6) was “the CEACAM5 stays on the surface of the cell membrane”.

B3: CEA-V2122: scFv-type anti-CEACAM5 antibody bound with mutant streptavidin V2122 via linker GGGGSGGGG; SEQ ID NO: 3 (protein)
chain: B1 chain
B3: in the data set with CEACAM5 [5] (bivalent analysis mode), the “KD=kd1/ka1” value came out at 1.078E−12. Besides, in the data set with CEACAM5 [5] (from the KD value in the sensorgram, FIG. 3), the “binding to CEACAM5” value is on record as “strongly binds to CEACAM5”. In the data set with CEACAM5 [5] (setting [7]), this molecule returned a ka1 of 3.208E+5 and a kd1 of 3.461E−7. Further, the “binding to a modified biotin” value in data set [6] (from the KD value in the sensorgram, FIG. 4) was “strongly binds to a modified biotin”. In data set [6] (setting [8]), the ka1 is 3.792E+4 and the kd1 is 4.424E−6.
